Reference: the supplement of paper PMC12042874
± gives the uncertainty stated by the source.

Assay: amyloid nucleation score (Sup35N fusion, yeast selection) (log enrichment); library NNK2; higher = more nucleation; inactive = no reads after selection
Summary of the method: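 For the nucleation score, DiMSum gave the log enrichment of output over input reads, centred on the mode score of non-aggregating sequences. Psi-negative yeast expressing Sup35N fused to peptides of 20 random codons were induced with 100 μM copper sulfate for 24 hours and grown 7 days at 30°C on medium lacking adenine and uracil. Input and output plasmid inserts were Illumina-sequenced, and sequences with under 100 input reads were excluded.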

Row | Substance | amyloid nucleation score
1 | DCRDLFLKKVWGYVGRLCEV | inactive
2 | PLVTCHDDEVQGMKFVSFFI | -0.451 ± 0.76
3 | DDASKKLYS | 0.967 ± 0.15
4 | YGFSGMMNSFSFHGC | 6.07 ± 0.083
5 | DPWRGGPVSSH | 1.18 ± 0.23
6 | GSRARNLIASAQYYNG | inactive
7 | ILEFKINPG | -1.05 ± 0.43
8 | SSADMQRY | -0.383 ± 0.48
9 | RKSYGRSWSSGNLYYNLHGD | -1.18 ± 1.1
10 | VNYSYVATSYRLVAILSNVW | -1.36 ± 0.62
11 | GIVVSIMHGIDSYGAIY | -0.395 ± 0.39
12 | FSLLTTFSLTNGGPAFLMIR | inactive
13 | SSYLMTYC | -0.104 ± 0.35
14 | NWMCMRCGVFVVLAVCLFWS | 3.42 ± 0.075
15 | SNCFHLVW | -0.031 ± 1
16 | CVSWRYFMFPCLVSLEMSSS | 3.71 ± 0.085
17 | DYIIVRMCADILSGSVHGAM | -0.068 ± 0.45
18 | MSFFYDMEEWRMCLRLARYR | 3.82 ± 0.07
19 | KVSYMFLVTLSYGSWFPSSM | -0.545 ± 0.45
20 | VLVGVEWFV | 0.318 ± 0.38
21 | YLSRWYLKILQVSWRSVHSS | -0.712 ± 0.36
22 | SFYIRGYISFLGHRTW | 2.57 ± 0.17

Row | Substance | amyloid nucleation score
23 | HAPPNCVSSIHSRRVSSWHE | 0.333 ± 0.65
24 | RFSGASNLVESPIKWIVGAH | 4.96 ± 0.06
25 | YFSSQLDLRRIMLLLSRYV | 0.721 ± 0.54
26 | RVESDTDVIVQIMQWRGVFL | 0.334 ± 0.28
27 | FVSEINVTSGD | 0.547 ± 0.42
28 | NVSRGTKIDNMDRVYFYPEA | -0.055 ± 0.46
29 | LSYRVRCIRMNMLSSALGTM | inactive
30 | CNKTLLFIFPVLGQQDGDFG | 4.417 ± 0.044
31 | VSIFMQRR | 2.76 ± 0.13
32 | NYFCIRS | 4.11 ± 0.052
33 | TILKDSTPAVYNVRMRFKAW | inactive
34 | MGVDLPIASLCSNCGEAGLG | 0.199 ± 0.43
35 | YMIYCFITVGCFISTLHYCG | 1.68 ± 0.15
36 | LCMCLRNMLSPAMVVTSNPP | 0.737 ± 0.2
37 | GSSVDGADMIGTLK | 1.46 ± 0.28
38 | RQRVMHAHHCLLYLMVKHFI | -0.675 ± 1.1
39 | NSHRKNHFIGGWDFTCEIYN | inactive
40 | KWKLMCDAFLS | -0.969 ± 0.48
41 | APRRVSERFGSIVWVRRNS | -0.547 ± 0.55
42 | GALMMMVEGSESVNKVHFVY | -1.05 ± 0.44
43 | SNVFEVGPMGPSR | 0.056 ± 0.5
44 | LLLIADYMSLVCCRAGVRDV | 0.215 ± 0.42

Row | Substance | amyloid nucleation score
45 | YRYAASVPKCNTGSRDVAQT | 0.942 ± 0.35
46 | VFDSPLHQWFYIKLIMLSTL | inactive
47 | YVDLKVACILYPYFSGTRQH | 4.96 ± 0.078
48 | VDIWVWVG | 0.456 ± 0.6
49 | KNDLRSSGWTAGSGISLEEG | -0.365 ± 0.76
50 | AILRRVKIQLPRIPPEYCGW | 0.884 ± 0.49
51 | ILVTVNTGSFLKSILHWL | 2.31 ± 0.19
52 | NSKTDSVHYYIDVLSPTHIF | -1.09 ± 0.78
53 | ERTMF | 0.396 ± 0.3
54 | KMDTRSRLKQWKRFFIHIPK | -0.92 ± 0.49
55 | TDFCSHKTWLSAVGISV | 0.037 ± 0.23
56 | YCINGLGIGTELCVFTTKWM | -0.479 ± 0.3
57 | RCMFDIYFVLVTCEQWCCLV | 0.099 ± 0.49
58 | SYWIADTNRSGNRRLSCGRC | 0.266 ± 1
59 | VRKLSRNLMICYKTVLSGDC | -0.105 ± 0.65
60 | FTILTP | -0.375 ± 0.79
61 | VRNFYLYVMWPWVQEFY | 7.457 ± 0.061
62 | IYFKIIQDKFQTRMCSNKSW | inactive
63 | SKVSKGLHST | inactive
64 | SFIWHLPFVC | 1.24 ± 0.4
65 | LHNDLLKVNSERENNNDLGS | 0.089 ± 0.5
66 | FISNYLMPV | 2.1 ± 0.12

Row | Substance | amyloid nucleation score
67 | SNGCQTRADGLTECDICKPS | 0.33 ± 0.24
68 | YADLISSWVILGWFQRKTLF | 0.228 ± 1
69 | HSFGRKYFFTF | -0.307 ± 0.55
70 | NSMTQFCIQCGGTTIAWSMF | 6.663 ± 0.039
71 | GAIIDITRFGFLLYF | -0.847 ± 0.34
72 | SMDGSQDCTTKLNWSFHSVF | 3.88 ± 0.066
73 | CILRPSLSFFHMPLR | 6.962 ± 0.033
74 | MYKGLISLNCVTSGTRSG | -1.07 ± 1.1
75 | TFMFDHRIGISDGLSTIMVI | 0.923 ± 0.81
76 | FGNALA | -1.15 ± 0.61
77 | VWDNIVPPQLISRRS | -0.813 ± 1.1
78 | NNDGTPDPNM | -0.237 ± 0.63
79 | KTLKNEFVDMNQMIYNY | -0.489 ± 0.79
80 | NFSNVFWKFISRWLTAF | inactive
81 | IVCLYKKCLLCGLHLVVSIV | -0.608 ± 0.53
82 | FTKVFRLHYFMRLTSMYVAF | -0.567 ± 1.1
83 | GRDNYSWCSRVEPCKRNGAL | 0.103 ± 0.43
84 | LFGNWSFVVNRCVVSLKLM | inactive
85 | VSRDLEVH | -0.001 ± 0.31
86 | SLEGKSWGCSTSNSLKGDKG | -0.06 ± 1.1
